{
  "source": "patent US20170226560",
  "proteins": {"B1": {"name": "Protease K (protein)", "chain": "AAQTNAPWGLARISSTSPGTSTYYYDESAGQGSCVYVIDTGIEASHPEFEGRAQMVKTYYYSSRDGNGHGTHCAGTVGSRTYGVAKKTQLFGVKVLDDNGSGQYSTIIAGMDFVASDKNNRNCPKGVVASLSLGGGYSSSVNSAAARLQSSGVMVAVAAGNNNADARNYSPASEPSVCTVGASDRYDRRSSFSNYGSVLDIFGPGTSILSTWIGGSTRSISGTSMATPHVAGLAAYLMTLGKTTAASACRYIADTANKGDLSNIPFGTVNLLAYNNYQA"}},
  "target": "peptide substrate shown in FIG. 9a (Protease K substrate)",
  "data": [
    {"protein": "B1", "values": [
      {"measurement": "ratio of the absorption at 700 nm/520 nm (750 nM peptide, Protease K up to 300 pM, 60 min, 20 C)", "value": "With increasing amounts of protease K the spectrum shifts back toward the native spectrum seen in the gold nanoparticles alone and the ratio falls to nearly 0"}
    ]}
  ]
}
